# Results taken from paper PMC4733626.
# Molecular target: wild-type metallo-β-lactamase L1 (UniProt P52700)
# Assay: SEC
substance,measurement,value
spin-labeled T163C/K286C mutant of metallo-β-lactamase L1 (enzyme),stoichiometry N,4
